The source of these data is article PMC10228819, “Changing course: Glucose starvation drives nuclear accumulation of Hexokinase 2 in S. cerevisiae” (PLOS Genetics, 2023).

Series [1] has as its target Hxk2 (hexokinase 2, ScHxk2) (UniProt P04807). Description: size exclusion chromatography. The settings on record: reference: wild type Hxk2, no glucose; sites S15. (In general: Size exclusion chromatography separates by hydrodynamic size, large species first.)
Series [2] concerns the molecule itself. The experiment in a line: SEC; TOSOH G2000 SWXL column on HPLC; 40 μg protein in 50 μl; hexokinase buffer (20 mM HEPES, 5 mM Mg acetate, 100 mM NaCl, 0.5 mM EDTA, 0.5 mM DTT) without glucose, no ATP; 1 mL/min.

The term stoichiometry N denotes the number of molecules, sites or subunits per partner or assembly.

For “Hxk2 (hexokinase 2, ScHxk2) (from UniProt P04807) Hxk2 S15D, no glucose”, the “other: SEC elution volume” value in series [1] is “lost; reference ~8.8”.

B1: Recombinant Hxk2, wild type, with C-terminal 6-histidine tag (enzyme, S. cerevisiae)
chain: MVHLGPKKPQARKGSMADVPKELMQQIENFEKIFTVPTETLQAVTKHFISELEKGLSKKGGNIPMIPGWVMDFPTGKESGDFLAIDLGGTNLRVVLVKLGGDRTFDTTQSKYRLPDAMRTTQNPDELWEFIADSLKAFIDEQFPQGISEPIPLGFTFSFPASQNKINEGILQRWTKGFDIPNIENHDVVPMLQKQITKRNIPIEVVALINDTTGTLVASYYTDPETKMGVIFGTGVNGAYYDVCSDIEKLQGKLSDDIPPSAPMAINCEYGSFDNEHVVLPRTKYDITIDEESPRPGQQTFEKMSSGYYLGEILRLALMDMYKQGFIFKNQDLSKFDKPFVMDTSYPARIEEDPFENLEDTDDLFQNEFGINTTVQERKLIRRLSELIGARAARLSVCGIAAICQKRGYKTGHIAADGSVYNRYPGFKEKAANALKDIYGWTQTSLDDYPIKIVPAEDGSGAGAAVIAALAQKRIAEGKSVGIIGA
notes: Hexokinase 2 (Hxk2), S. cerevisiae, cloned into pET14b; also called WT Hxk2; purified Hxk2; source: E. coli, purified (Ni-NTA)
Take B1: the “stoichiometry N” value in series [2] came to 2.
